# Data: the nanobody polyreactivity screen of Harvey et al. (2022)
# Assay: yeast display, Sf9 membrane polyspecificity reagent, FACS + sequencing; frameworks hold sequencing errors
# Outline: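 A synthetic nanobody library was expressed on Saccharomyces cerevisiae BJ5465 by galactose induction for 36–48 hours. The library was stained for 1 hour at 4 °C with 10% biotinylated, detergent-solubilized Sf9 membrane reagent and enriched with streptavidin microbeads before FACS. Low and high (top ~1%) gates were set on anti-HA fluorescence for expression and streptavidin fluorescence for reagent binding, and each polyreactivity label reflects the gate of origin.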
row,Sequence,polyreactivity (PSR sort gate)
1,QVQLVESGGGLVQAGGSLRLSCAASGRIFNRNAMGWYRQAPGKEREFVAAISRSGGTTYYADSVKGRFTFSRDNAKNTVYLQINSLKPEDTAFYYCNAVRYQTEVDYWGQGTQVTVSS,high polyreactivity
2,QVQLVESGGGLVQAGGSLRLSCAASGRIFNRNAMGWYRQAPGKERELVAAITGSGGITYYADSVKGRFTISRDNAKNTVYLQMNSLKPEDTAVYYCAARAKFLSLPTYDYWGQGTQVTVSS,high polyreactivity
3,QVQLVESGGGLVQAGGSLRLSCAASGRIFNRNAMGWYRQPPGKERELVAAISWSGTRTYYADSVKGRFTISRDNAKNTVYLQMNSLKPEDTAVYYCAAGASLYSYYGFLPYDYWGQGTQVTVSS,high polyreactivity
4,QVQLVESGGGLVQAGGSLRLSCAASGRIFNRYAMGWYRQAPGKERELVAAITSGGSTYYADSVKGRFTISRDNAKNTVYLPMNSLKREDTAFYYCAALPRSNSYGYCGQGTQVTVSS,high polyreactivity
5,QVQLVESGGGLVQAGGSLRLSCAASGRIFNTYAMGWYRQAPAKERELVAAITSSGGSTYYADSVKGRFTISRDNAKNTVYLQMNSLKPEDTAVYYCNAGSLHRRYYYEGDYWGQGTQVTVSS,high polyreactivity
6,QVQLVESGGGLVQAGGSLRLSCAASGRIFNWYGMGWYRQAPGKERELVATISSSGDSTYYADSVKGRFTISRDNAKNTVYLQMNSLKPEDTAVFYCAKRARYKFGYWGQGSQVTVSS,high polyreactivity
7,QVQLVESGGGLVQAGGSLRLSCAASGRIFNYNAIGWYRQAPGKERELVAAITCSGGSTYYADSVKGRFTISRDNAQYNVYLQMNSLKPEDTAVYYCIALITYSSDYWGQGTQVTVSS,low polyreactivity
8,QVQLVESGGGLVQAGGSLRLSCAASGRIFPAYAMGWYRQAPGKERELVAAITGGGSTNYADSVKGRFTISRDNAKHTVYLQMNSLKPEDTAVYYCNAAVVWPNRQENDYWGQGTQVTVSS,low polyreactivity
9,QVQLVESGGGLVQAGGSLRLSCAASGRIFPAYAMGWYRQAPGTERELVASIRRGGITYADSVKGRFTISRDNAKNTVYLQMNSLKPEDTAVYYCNADYRGWGYHMDYWGQGTQVTVSS,low polyreactivity
10,QVQLVESGGGLVQAGGSLRLSCAASGRIFPGNAMGWYRQSPGKERELVAGISFSGGRTYYADSVKGRFSISRDNAKNTVYLQMNSLKPEDTAVYYCATKYQQHWWRYDYWGQGTQVTVSS,low polyreactivity
11,QVQLVESGGGLVQAGGSLRLSCAASGRIFPGYAMGWYRQAPGKERELVAAISASGGSTYYADSVKGRFTISRDNAKNTVYLQMNSLKPEDTAVYDCNAVYRLIRFDYWGQGTQVTVSS,high polyreactivity
12,QVQLVESGGGLVQAGGSLRLSCAASGRIFPGYAMGWYRQAPGKQRELVAGISNDASTNYADSVKGRFTISRDNAKNTVYLQMNSLKPEDTAVFYCAAEISYLSVPRYDYWGQGTQVTVSS,low polyreactivity
13,QVQLVESGGGLVQAGGSLRLSCAASGRIFPHNAMGWYRQAPGKERELVAAIRFSGGNTYYADSVKGRFTISRDNAKNTVYLQLNSLKPEDTAVYYCFVYGYVPYNYWGQGTQVTVSS,low polyreactivity
14,QVQLVESGGGLVQAGGSLRLSCAASGRIFPKYAMGWYRQAPGKERELVAAISSSGGSTYYADSVKGRFTISRDNAKNTVYLQMNSLKPEDTAVYYCAAEQYSYGYTIYEYWGQGTQVTVSS,high polyreactivity
15,QVQLVESGGGLVQAGGSLRLSCAASGRIFPLNAMGWYRQAPGKERELVAAIRNGGRTNYADSVKGRFTISPDNAKNTVYVQMNSLKPEDTAVYYCSFTLSSVLQYDSWGQGTQVTVSS,low polyreactivity
16,QVQLVESGGGLVQAGGSLRLSCAASGRIFPLYAMGWYRQAPGKERELGAAISSGGTTYYADSVKGRFTISRDNAKNTVYLQMNSLKPEDTAVYYCARRPAQRWGRFDYWGQGTQVTVSS,low polyreactivity
